{"source": "the nanobody polyreactivity screen of Harvey et al. (2022)"}
{"experiment": "yeast display, Sf9 membrane polyspecificity reagent, FACS + sequencing; frameworks hold sequencing errors", "in_short": "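A synthetic nanobody library was expressed on Saccharomyces cerevisiae BJ5465 by galactose induction for 36–48 hours. The library was stained for 1 hour at 4 °C with 10% biotinylated, detergent-solubilized Sf9 membrane reagent and enriched with streptavidin microbeads before FACS. Low and high (top ~1%) gates were set on anti-HA fluorescence for expression and streptavidin fluorescence for reagent binding, and each polyreactivity label reflects the gate of origin.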"}
{"sequence": "QVQHVESAGRLVQAGGSLRLSCAASGRILVYYALGWYRQPPGKEREFVAAISQRGGSTYYADSVKGRFTISRDNAKNTVYLQMNSLKPDDTEVYYCATRPIQYRRGYDYWGQGTQVTVSS", "polyreactivity (PSR sort gate)": "high polyreactivity"}
{"sequence": "QVQHVESGGGLVQAGGSLRLSCAASGNIFTRNPMGWYRQAPGKERELVAAINYSGGSTYYADSVKGRFTISRDNAKNTVYLQMNSLKPEDTAVYYCAKDYAPSTDSYDYWGQGTQVTVSS", "polyreactivity (PSR sort gate)": "low polyreactivity"}
{"sequence": "QVQLVESGGGLVQAGGSLRLSCAASGNIFYTNAMGWYRQAPGKERELVATISRSVGSTYYADSVKGRFTISRDNAKNTVYLQMNSLKPEDTAVYYCAASRLLSALTAYSWGFNYWGQGSQVTVSS", "polyreactivity (PSR sort gate)": "high polyreactivity"}
{"sequence": "QVQLVESGGGLVQAGGSLRLSCAASGRIFSRYAMGWYRQAPGKERELVAAITRGGSTYADSVKGRFTISRDNAKNTVYLQMNSLKPEDTAVYYCATPIYSSYYRYSSGYGYDYWGQGTQVTVSS", "polyreactivity (PSR sort gate)": "high polyreactivity"}
{"sequence": "QVQLVESGGGLGQAGGSLRLSCAASGLTFTKNVMGWSSQAPGKERELVAVISRSGGSTYYADSVKGRFTISRDNAKNTVYLQMISLKPEDTAVYYCNVKGPGPSRGNYWGQGTQVTVSS", "polyreactivity (PSR sort gate)": "low polyreactivity"}
{"sequence": "QVQLVESGGGLVQAGGSLRLSCAASGFILGSNAMGWYRQAPGKERELVAAISRSGGSTYYADSVKGRFTISRDNAKNTVYLQMNSLKPEDTAVYYCNRVASVRARDYDYWGQGTQVTVSS", "polyreactivity (PSR sort gate)": "high polyreactivity"}
{"sequence": "QVQLVESGGGLVQAGGSLRISCAASGFIFQYNTMGWYRQAPGKERELVAVITRTGSTNYADSVKGRFTISRDNAKNTVYLQMNSLKPEDTAVYFCATSFYSRPRKARYYYWGQGTQVTVSS", "polyreactivity (PSR sort gate)": "high polyreactivity"}
{"sequence": "QVHLVESGGGLVQAGGSLRLSCAASGIIFGGNVMGWYRQAGGKERELVAAITWSGGTTYYADSVKGRFTISRDNAKNTVYLQMNSLKPEDTAVYYCAADRFYLDYVAGTYDYWGQGTQVTVSS", "polyreactivity (PSR sort gate)": "low polyreactivity"}
{"sequence": "IIQAGGSLRLSCAASGRTFSGYARGWYRQAPGKERELIADITSGGSTYYADSVKGRFTISRDNAKNTVYLQMNSLKPEDTAVYYCSRDDRLAGDYWGQGTQVTVSS", "polyreactivity (PSR sort gate)": "low polyreactivity"}
{"sequence": "QVQLVESGGGLVQEGGSLRLSCAASGSIFDTYAMGWYRQAPGKERELVAAISSGGRTYYADSVKGRFTISRDNAKNTDYFQMNSLKPEYTAVYYCAKERYQQGNYYRYGYWGQGTQVTVSS", "polyreactivity (PSR sort gate)": "high polyreactivity"}
{"sequence": "QVQLVESGGGLVQAGGSLRLICAASGIFSYYARGWYRQAPGKERELVATISRRGSSTYYADSVKGRFTISRDNAKNTVYLQMNSLKPEDTAVYYCNADIGWGRFSQSFDYWGQGTQVTVSS", "polyreactivity (PSR sort gate)": "low polyreactivity"}
{"sequence": "QVQLVESAGGLVQEGGSLRLSCAASVIFWANVMGWYRQAPGKEWELVDAITSGGSTNYADSVKGRFTISRDNAKNTVYLQMNSLKPEDTAVYYCIKPWYSYRYGGVGYGYWGQGTQVTVSS", "polyreactivity (PSR sort gate)": "low polyreactivity"}
{"sequence": "QVQLVESGGGLVQAGGSLRLSCAPSGITFYGNDMGWYRQAPGKERELVAAISSGGITNYADSVKGRFTISRDNAKNSVYLQMNSLKPEDTAVYYCAKDLLYYHITPDGYTWYLPEDSWGQGTQVTVSS", "polyreactivity (PSR sort gate)": "low polyreactivity"}
{"sequence": "QVQLVESGGGLVQAGGSLRLSCAASGSIFVPYAMGWYRQAPGKERELVAAISYRGGNTYYADSVKGRFTISRDKAKNTVSLQMNSLKPEDTAVYYCNAGVSIGRSRRDDYWGQGTQVTVSS", "polyreactivity (PSR sort gate)": "low polyreactivity"}
{"sequence": "QVQLVESGGGLVQAGGSLRLSCAASGSTFKVYAMGWYRQAPGKERELVAVISGGGRTNYADSVKGRFTISRDNAKNTVYLQMNSLNPEDTAVYYSAALGPYGSARRKYGYWGQGTQVTVSS", "polyreactivity (PSR sort gate)": "high polyreactivity"}
{"sequence": "QVQLVESGGGLVQAGGSLRLSCAASGFTFGGNTMGWYRQAPGKERELVAAITQGGSSTYYADSVKGRFTISRDNAKNTVYLQMNSLKPEDTAVYYCNRGSPFGGLRPYDYWGQGTQVTVSS", "polyreactivity (PSR sort gate)": "high polyreactivity"}
{"sequence": "QVQLVESGGGLVQAGGSLRLSCAASGSTFAFNAMGWYRQAPGKEREFVARITWSDGSTYYADSVKGRFTISRDNAKNSVYLQMNSLKPEDTAVYYCARDPTEQAIARWTYDYWGQGTQVTVSS", "polyreactivity (PSR sort gate)": "low polyreactivity"}
{"sequence": "QVQLVESGGGLVQAGGSLRLSCAASGFIFQYYAMGWYRQAPGKERELVAAINRGGGTHYADSVKGRFTISRDNAKNTVYLQMNSLKPEDTAVYYCNKVYYWPGSRPSRYEYWGQGTQVTVSS", "polyreactivity (PSR sort gate)": "low polyreactivity"}
{"sequence": "QVQLVESGGGLVQAGGSLRLSCAASGIIFRTNAMGWYRQAPGKERDFVAAISAGGTRTYYADSVKGRFTISRDNAKNTVYLQMNSLKPEDTAVYYCAARYPEYETEDDYWGQGTQVTVSS", "polyreactivity (PSR sort gate)": "high polyreactivity"}
{"sequence": "QVQLVESGGGLVQAGGSLRLSCAASGFTFIRNAMGWYRPAPGKERELVAAISTSGGTTYYADSVKGRFTISRDNAKNTVYLQMNSLKPEDTAVYYCNKGIGRSDPDYRYYYWGQGTQVTVSS", "polyreactivity (PSR sort gate)": "high polyreactivity"}
{"sequence": "QDQLVDSGGRLVQGGGSLRLSCAASGYIFIWYDMGWYRQAPGKERELVAAISGSGGYTYYADSVKGRFTISRDNAKNTVFLQMNSLKPEDTAVYYCAAYVARGNSEVIAMDYWGQGTQVTVSS", "polyreactivity (PSR sort gate)": "low polyreactivity"}
{"sequence": "QVQLQESGGGQVQAGGSLRLSCAASGSIYDDTYMGWYRQAPGKERELVATIDSGSTTNYADSVIGRITISRDNAKNTVYLQMNSLKPEDTAVYYCAAADSHIDYFDYWGQGTQVTVSS", "polyreactivity (PSR sort gate)": "low polyreactivity"}
